We go through one molecule from publication PMC6735865 (Nucleic Acids Research, 2019).

The target of this experiment is human METTL5, C-terminally His6-tagged (human, UniProt Q9NRN9). In words: pull-down.
Chain of human METTL5, C-terminally His6-tagged (Q9NRN9 whole entry): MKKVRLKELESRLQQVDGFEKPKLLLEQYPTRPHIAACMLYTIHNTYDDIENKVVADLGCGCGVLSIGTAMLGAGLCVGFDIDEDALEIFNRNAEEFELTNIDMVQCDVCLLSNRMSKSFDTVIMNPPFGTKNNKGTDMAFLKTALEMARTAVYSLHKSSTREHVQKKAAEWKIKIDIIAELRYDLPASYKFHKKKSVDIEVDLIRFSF

B1: human TRMT112, untagged (natural protein)
chain: MKLLTHNLLSSHVRGVGSRGFPLRLQATEVRICPVEFNPNFVARMIPKVEWSAFLEAADNLRLIQVPKGPVEGYEENEEFLRTMHHLLLEVEVIEGTLQCPESGRMFPISRGIPNMLLSEEETES
With B1, the binding result is on record as “binds”.
